Patent publication US20230383295A1

Target: integrin receptors
Assay: cell-based or functional assay

vitronectin with RGD domain mutated to RGE (knock-in mouse line Vtn^RGE/RGE) (from UniProt P29788 20-478) (ligand)
HRP-filled vesicles in endothelial cells of Vtn^RGE mice compared to wildtype animals: 2 fold
